One test has as its target T1, ErbB4 (Rattus norvegicus, UniProt Q62956).
T1 construct: forming the ErbB2/ErbB4 complex in cardiomyocytes and the ErbB2/ErbB3 complex in Schwann cells; endogenous in cells; host or cells: primary neonatal rat cardiomyocytes (Sprague Dawley pups, 0 to 4 days old)
Kind of test: In vitro phosphorylation of Akt in neonatal rat cardiomyocytes. In kind it is cell-based. As to conditions: for EC50: Akt (Serine 473) phosphorylation, neonatal rat cardiomyocytes, 15 minutes treatment, read-out: Cardiomyocyte (CM) (ErbB4) Avg EC50; for Selectivity SC/CM: ratio of EC50s Schwann cells/cardiomyocytes; for CM % Agonism AVG: top value of the Akt phosphorylation data points in cardiomyocytes, wild-type control 100. Here is the method:
(§1) In Vitro Phosphorylation of Akt in Neonatal Rat Cardiomyocytes and Rat Schwann Cells by Neuregulin Variants
(§2) Specificity of neuregulin variants towards cardiomyocytes (ErbB4) versus Schwann cells (ErbB3) was tested by measuring Akt activity generated by formation of the ErbB2/ErbB4 and ErbB2/ErbB3 complexes. Upon activation by neuregulin, the ErbB4 and ErbB3 receptors dimerize preferentially with the ErbB2 co-receptor, forming the ErbB2/ErbB4 complex in cardiomyocytes and the ErbB2/ErbB3 complex in Schwann cells, both of which signal through the Akt pathway. Neonatal rat cardiomyocytes were isolated from hearts of Sprague Dawley rat pups at 0 to 4 days old according to manufacturer's protocol using the Neomyt kit and plated on Surecoat plates in NS media containing serum (all from Cellultron Life Technologies, Baltimore, MD). Rat Schwann cells were plated in Poly-D-Lysine coated plates with Dulbecco's modified Eagle's media (DMEM) supplemented with fetal bovine serum (Thermo Fisher) and forskolin (Millipore Sigma).
(§3) After a 24-hour incubation in a humidified incubator maintained at 37° C. and 5% CO2, cardiomyocytes and Schwann cells were washed with serum free media and incubated an additional 16 hours in DMEM supplemented with bovine serum albumin (Sigma). Both cell lines were then treated with titrations of the neuregulin variant molecules for 15 minutes, upon which cells were lysed in lysis buffer (Meso Scale Discovery (MSD)). For detection of Akt phosphorylation, lysates were added to the Multi-Spot 96-Well 4-Spot Phospho (Serine 473)/Total Akt plates (MSD), incubated according to the manufacturer's protocol and read in the SECTOR Imager 6000 (MSD). For both cell assays, the percent phosphorylation of Akt was calculated by multiplying the phospho Akt signal by 2, then dividing by the phospho Akt signal added to the total Akt signal and then multiplying by 100. The phosphorylation of Akt data points were fitted using a log (agonist) versus response, variable slope (4 parameters) analysis in GraphPad Prism to generate EC50 curves. The CM % agonism reflect the top value of the data points.

Another test deals with T2, ErbB3 (Rattus norvegicus, UniProt Q62799).
T2 construct: forming the ErbB2/ErbB4 complex in cardiomyocytes and the ErbB2/ErbB3 complex in Schwann cells; endogenous in cells; host or cells: rat Schwann cells
Kind of test: In vitro phosphorylation of Akt in rat Schwann cells. As to conditions: Akt (Serine 473) phosphorylation, 15 minutes treatment; for EC50: read-out: Schwann cells (SC) (ErbB3) Avg EC50. The test is classed as cell-based. On the procedure:
as §1, §2, §3

Positions count from the first letter of the chain named. A value given as a limit tells only on which side of the number the result lay.

T2 sequence (Q62799 20-1339): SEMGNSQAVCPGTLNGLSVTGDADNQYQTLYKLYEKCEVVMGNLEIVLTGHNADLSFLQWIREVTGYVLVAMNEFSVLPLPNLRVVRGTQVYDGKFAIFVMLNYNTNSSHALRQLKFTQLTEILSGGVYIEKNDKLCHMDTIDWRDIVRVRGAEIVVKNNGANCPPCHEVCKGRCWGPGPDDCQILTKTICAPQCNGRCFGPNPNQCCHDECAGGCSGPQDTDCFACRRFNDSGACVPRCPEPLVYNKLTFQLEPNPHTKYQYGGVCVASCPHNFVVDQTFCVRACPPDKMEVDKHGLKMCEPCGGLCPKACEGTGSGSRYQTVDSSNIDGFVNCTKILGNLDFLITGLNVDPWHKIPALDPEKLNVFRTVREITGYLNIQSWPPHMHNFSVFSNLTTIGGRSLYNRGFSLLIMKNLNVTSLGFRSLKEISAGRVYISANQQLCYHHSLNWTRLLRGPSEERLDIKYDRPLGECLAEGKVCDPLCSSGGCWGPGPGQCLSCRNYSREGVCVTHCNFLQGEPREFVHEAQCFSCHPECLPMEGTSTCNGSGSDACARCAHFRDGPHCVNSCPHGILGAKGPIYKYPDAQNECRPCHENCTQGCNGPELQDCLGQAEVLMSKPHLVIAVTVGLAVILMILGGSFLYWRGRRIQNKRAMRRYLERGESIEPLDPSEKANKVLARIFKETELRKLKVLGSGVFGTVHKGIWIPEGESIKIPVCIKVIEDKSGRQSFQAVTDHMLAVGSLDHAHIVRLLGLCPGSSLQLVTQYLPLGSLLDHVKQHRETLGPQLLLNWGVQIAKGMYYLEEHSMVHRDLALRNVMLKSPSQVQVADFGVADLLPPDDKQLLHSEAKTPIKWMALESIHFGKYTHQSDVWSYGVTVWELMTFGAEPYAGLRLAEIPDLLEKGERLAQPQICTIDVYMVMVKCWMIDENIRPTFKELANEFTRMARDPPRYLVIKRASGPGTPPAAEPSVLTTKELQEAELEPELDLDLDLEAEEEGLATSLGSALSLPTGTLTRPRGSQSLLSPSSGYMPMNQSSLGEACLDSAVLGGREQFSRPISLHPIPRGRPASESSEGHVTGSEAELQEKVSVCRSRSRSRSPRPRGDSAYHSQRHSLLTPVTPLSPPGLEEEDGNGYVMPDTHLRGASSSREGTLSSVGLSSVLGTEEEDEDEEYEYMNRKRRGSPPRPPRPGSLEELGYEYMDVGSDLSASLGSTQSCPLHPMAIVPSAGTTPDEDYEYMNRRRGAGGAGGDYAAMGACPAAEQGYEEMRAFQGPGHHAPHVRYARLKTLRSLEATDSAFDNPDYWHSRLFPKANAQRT
T2 sequence (P06494 23-1257 partner): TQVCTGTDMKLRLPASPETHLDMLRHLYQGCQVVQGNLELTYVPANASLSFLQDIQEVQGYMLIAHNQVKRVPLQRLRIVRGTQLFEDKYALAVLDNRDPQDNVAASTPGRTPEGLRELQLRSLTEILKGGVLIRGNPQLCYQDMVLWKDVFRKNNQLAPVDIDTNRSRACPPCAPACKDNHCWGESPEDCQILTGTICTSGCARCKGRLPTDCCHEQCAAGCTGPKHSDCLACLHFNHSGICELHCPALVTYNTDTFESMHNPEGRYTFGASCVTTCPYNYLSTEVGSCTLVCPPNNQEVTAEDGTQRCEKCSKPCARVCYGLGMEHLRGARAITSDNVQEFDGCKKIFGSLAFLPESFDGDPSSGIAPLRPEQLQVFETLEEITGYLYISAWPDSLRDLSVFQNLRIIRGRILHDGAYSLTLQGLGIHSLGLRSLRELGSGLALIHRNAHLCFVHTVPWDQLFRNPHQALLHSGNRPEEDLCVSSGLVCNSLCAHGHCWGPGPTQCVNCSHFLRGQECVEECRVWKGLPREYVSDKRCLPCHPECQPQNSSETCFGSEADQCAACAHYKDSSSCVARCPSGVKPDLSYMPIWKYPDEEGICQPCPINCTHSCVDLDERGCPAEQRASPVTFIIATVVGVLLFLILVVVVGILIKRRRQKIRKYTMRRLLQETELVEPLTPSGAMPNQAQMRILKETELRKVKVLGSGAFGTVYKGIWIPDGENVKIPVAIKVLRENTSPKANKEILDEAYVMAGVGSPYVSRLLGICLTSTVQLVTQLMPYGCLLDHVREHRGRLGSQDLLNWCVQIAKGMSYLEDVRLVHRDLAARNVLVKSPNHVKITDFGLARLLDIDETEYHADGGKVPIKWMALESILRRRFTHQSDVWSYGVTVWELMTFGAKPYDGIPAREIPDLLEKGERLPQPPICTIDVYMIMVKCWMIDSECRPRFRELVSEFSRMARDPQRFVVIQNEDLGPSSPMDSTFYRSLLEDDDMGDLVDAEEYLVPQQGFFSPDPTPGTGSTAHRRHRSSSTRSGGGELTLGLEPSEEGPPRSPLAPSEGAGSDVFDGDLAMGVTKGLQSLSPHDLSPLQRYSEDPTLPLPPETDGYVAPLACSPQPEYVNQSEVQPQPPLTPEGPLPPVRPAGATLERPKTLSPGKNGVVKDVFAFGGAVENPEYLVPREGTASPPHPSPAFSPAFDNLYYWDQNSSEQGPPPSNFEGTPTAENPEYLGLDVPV
T1 sequence (Q62956 26-1308): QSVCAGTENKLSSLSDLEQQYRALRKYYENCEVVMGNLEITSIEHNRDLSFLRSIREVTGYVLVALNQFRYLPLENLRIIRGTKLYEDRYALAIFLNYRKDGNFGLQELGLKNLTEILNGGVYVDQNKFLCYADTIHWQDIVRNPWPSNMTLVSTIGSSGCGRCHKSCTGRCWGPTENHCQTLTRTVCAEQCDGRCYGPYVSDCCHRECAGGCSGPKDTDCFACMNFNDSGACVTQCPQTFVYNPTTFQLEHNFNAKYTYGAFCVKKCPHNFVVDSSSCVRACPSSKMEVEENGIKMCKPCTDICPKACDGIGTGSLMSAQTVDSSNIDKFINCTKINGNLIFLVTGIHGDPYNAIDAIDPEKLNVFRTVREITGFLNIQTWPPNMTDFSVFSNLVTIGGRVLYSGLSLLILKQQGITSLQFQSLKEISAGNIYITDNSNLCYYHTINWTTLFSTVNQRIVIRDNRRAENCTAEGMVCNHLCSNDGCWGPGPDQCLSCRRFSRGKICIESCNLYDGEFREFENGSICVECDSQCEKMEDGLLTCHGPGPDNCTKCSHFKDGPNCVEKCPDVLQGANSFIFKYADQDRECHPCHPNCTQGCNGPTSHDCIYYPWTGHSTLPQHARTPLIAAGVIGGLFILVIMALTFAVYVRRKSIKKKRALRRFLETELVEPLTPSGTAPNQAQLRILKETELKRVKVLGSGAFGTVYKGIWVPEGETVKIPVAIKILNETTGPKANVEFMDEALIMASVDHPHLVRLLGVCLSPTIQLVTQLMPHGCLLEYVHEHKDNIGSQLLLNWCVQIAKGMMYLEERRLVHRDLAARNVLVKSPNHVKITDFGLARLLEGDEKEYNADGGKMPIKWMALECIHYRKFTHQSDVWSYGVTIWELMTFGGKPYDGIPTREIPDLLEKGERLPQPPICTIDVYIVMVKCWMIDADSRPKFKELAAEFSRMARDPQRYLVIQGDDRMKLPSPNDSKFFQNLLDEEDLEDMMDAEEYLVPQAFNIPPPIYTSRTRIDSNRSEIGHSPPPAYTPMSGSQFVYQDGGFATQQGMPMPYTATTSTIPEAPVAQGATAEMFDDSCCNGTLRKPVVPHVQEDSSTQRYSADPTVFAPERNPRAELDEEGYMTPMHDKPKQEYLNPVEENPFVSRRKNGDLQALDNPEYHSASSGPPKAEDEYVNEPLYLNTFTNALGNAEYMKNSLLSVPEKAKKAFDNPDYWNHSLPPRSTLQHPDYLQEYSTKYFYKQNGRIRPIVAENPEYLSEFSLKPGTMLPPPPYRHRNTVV
T1 sequence (P06494 23-1257 partner): as the sequence (P06494 23-1257 partner) above

B1: huNRG1(S177-F229)(NRGE1D) (E47K_D48L_F49D_M50I) 6xHis: 6xHis-tagged NRG1 variant SEQ ID NO:127 (protein)
chain: SHLVKCGESHKSFCVNGGECYMVEGSSIPSRYLCKCPNEFTGDRCQKLDIASFGGGGEGGGGAGGGGHHHHHH
modifications: 6xHis tag; huNRG1(S177-F229)(NRGE1D) (E47K_D48L_F49D_M50I) 6xHis
Usually EC50 stands for the concentration that produces a half-maximal response. For B1, in the test with ErbB4, the concentration giving a half-maximal response (EC50) came to 0.311 nM, the “Selectivity SC/CM” value was determined as 55.4019 and the “CM % Agonism AVG” value is reported as 91.65%. Also, the EC50 with ErbB3 amounted to 17.2 nM.

B2: huNRG1(S177-F229)(NRGE1D) (E47V_D48T_F49R_M50L) 6xHis: 6xHis-tagged NRG1 variant SEQ ID NO:130 (protein)
chain: B1 chain with K47V, L48T, D49R, I50L
modifications: 6xHis tag; huNRG1(S177-F229)(NRGE1D) (E47V_D48T_F49R_M50L) 6xHis
On to B2, for which, in the test with ErbB4, the 50% effective concentration (EC50) was 0.224 nM, the “Selectivity SC/CM” value is over 10000 and the “CM % Agonism AVG” value stood at 97.95%. In addition, the EC50 in the test with ErbB3 was determined as 10000 nM.

B3: huNRG1(S177-F229)(NRGE1D) (E47S_D48S_F49E_M50L) 6xHis: 6xHis-tagged NRG1 variant SEQ ID NO:128 (protein)
chain: B1 chain with K47S, L48S, D49E, I50L
modifications: 6xHis tag; huNRG1(S177-F229)(NRGE1D) (E47S_D48S_F49E_M50L) 6xHis
On to B3, for which, in the test with ErbB4, the EC50 is 0.557 nM, the “Selectivity SC/CM” value is over 10000 and the “CM % Agonism AVG” value is on record as 96.05%. Moreover, the EC50 with ErbB3 amounted to 10000 nM.

B4: huNRG1(S177-F229)(NRGE1D) (E47T_D48S_F49L_M50L) 6xHis: 6xHis-tagged NRG1 variant SEQ ID NO:129 (protein)
chain: B1 chain with K47T, L48S, D49L, I50L
modifications: 6xHis tag; huNRG1(S177-F229)(NRGE1D) (E47T_D48S_F49L_M50L) 6xHis
Turning to B4, in the test with ErbB4, the concentration for a half-maximal effect (EC50) was 0.33 nM, the “Selectivity SC/CM” value was over 10000 and the “CM % Agonism AVG” value amounted to 99.83%. Further, in the test with ErbB3, the EC50 came out at 10000 nM.

B5: :huFcSEFL2(desK)vl31(+):G4SG4:huNRG1(S177-F229)(NRGE1C): N-terminal Fc fusion of NRG1 variant SEQ ID NO:117 (protein)
chain: DKTHTCPPCPAPELLGGPSVFLFPPKPKDTLMISRTPEVTCVVVDVSHEDPEVKFNWYVDGVEVHNAKTKPCEEQYGSTYRCVSVLTVLHQDWLNGKEYKCKVSNKALPAPIEKTISKAKGQPREPQVYTLPPSREKMTKNQVSLTCLVKGFYPSDIAVEWESNGQPENNYKTTPPVLKSDGSFFLYSKLTVDKSRWQQGNVFSCSVMHEALHNHYTQKSLSLSPGGGGGSGGGGSHLVKCGEKHKSFCVNGGECFMIEGPSNPSRYLCKCPNEFTGDRCQEDFMASFDKTHTCPPCPAPELLGGPSVFLFPPKPKDTLMISRTPEVTCVVVDVSHEDPEVKFNWYVDGVEVHNAKTKPCEEQYGSTYRCVSVLTVLHQDWLNGKEYKCKVSNKALPAPIEKTISKAKGQPREPQVYTLPPSREEMTENQVSLTCLVEGFYPSDIAVEWESNGQPENNYETTPPVLDSDGSFFLYSDLTVDKSRWQQGNVFSCSVMHEALHNHYTQKSLSLSPGK
modifications: huFcSEFL2(desK)v131(+)G4SG4huNRG1(S177-F229) (NRGE1C)
For the molecule B5, in the test with ErbB4, the EC50 worked out at 6.4 nM, the “Selectivity SC/CM” value is listed as over 10000 and the “CM % Agonism AVG” value turned out to be 62.7%. Further, the “Schwann cells (SC) (ErbB3) Avg EC50 (M)” value in the test with ErbB3 was “inactive”.

B6: :huFcSEFL2(desK)vl31(+):G4SG4:huNRG1(S177-F229)(NRGE1D): N-terminal Fc fusion of NRG1 variant SEQ ID NO:126 (protein)
chain: B5 chain with K244S, F256Y, I258V, P261S, N263I
modifications: huFcSEFL2(desK)v131(+)G4SG4huNRG1(S177-F229) (NRGE1D)
Turning to B6, in the test with ErbB4, the EC50 stood at 4.3 nM, the “Selectivity SC/CM” value is over 10000 and the “CM % Agonism AVG” value was found to be 72.3%. Further, in the test with ErbB3, the “Schwann cells (SC) (ErbB3) Avg EC50 (M)” value is “inactive”.

B7: huNRG1(S177-F229) 6xHis: 6xHis-tagged NRG1 fragment S177-F229 without variant mutations (protein)
chain: SHLVKCAEKEKTFCVNGGECFMVKDLSNPSRYLCKCPNEFTGDRCQNYVMASFGGGGEGGGGAGGGGHHHHHH
modifications: 6xHis tag; huNRG1(S177-F229) 6xHis
notes: 6xHis-tagged NRG1 fragment S177-F229 without variant mutations
As for B7, in the test with ErbB4, the EC50 turned out to be 0.587 nM, the “Selectivity SC/CM” value was determined as 6.165 and the “CM % Agonism AVG” value stood at 97.51%. Besides, in the test with ErbB3, the EC50 amounted to 3.62 nM.

These data come from patent US12692294B2, “Engineered NRG-1 variants with improved selectivity toward ErbB4 but not against ErbB3” (Amgen Inc., priority 2021, dated 2026).
